In publication PMC5432616 (The Protein Journal, 2017):

Molecular target: the molecule itself
Experiment: dynamic light scattering; Zetasizer Nano S, 6 μM enzyme, 50 mM Hepes pH 7.4, 0.5 M NaCl, 25 °C; also with L-Orn and α-KG at saturating concentrations

B1: R217A variant of human ornithine δ-aminotransferase (enzyme, UniProt P04181 26-439, looked up)
chain: TSVATKKTVQGPPTSDDIFEREYKYGAHNYHPLPVALERGKGIYLWDVEGRKYFDFLSSYSAVNQGHCHPKIVNALKSQVDKLTLTSRAFYNNVLGEYEEYITKLFNYHKVLPMNTGVEAGETACKLARKWGYTVKGIQKYKAKIVFAAGNFWGRTLSAISSSTDPTSYDGFGPFMPGFDIIPYNDLPALEAALQDPNVAAFMVEPIQGEAGVVVPDPGYLMGVRELCTRHQVLFIADEIQTGLARTGRWLAVDYENVRPDIVLLGKALSGGLYPVSAVLCDDDIMLTIKPGEHGSTYGGNPLGCRVAIAALEVLEEENLAENADKLGIILRNELMKLPSDVVTAVRGKGLLNAIVIKETKDWDAWKVCLRLRDNGLLAKPTHGDIIRFAPPLVIKEDELRESIEIINKTILSF
notes: the protein as purified is reconstituted with PLP, so probably the holo-form (PLP on Lys292); A start Met from the NdeI site probably precedes T26; also called R217A mutant; dimeric variant R217A; source: E. coli BL21(DE3)pLysS, purified (DEAE Sepharose, Superdex 200)
  stoichiometry N: 2
